# Assay results from PMC4889959 (Nucleic Acids Research, 2016).
# B1: SLX4BTB wild type, yeast two-hybrid fusion [human] / SLX4BTB wild type, yeast two-hybrid fusion [human] (parent)
# chain 1: QDKHPDRGGRTLLSLGLLVADFGAMVNNPHLSDVQFQTDSGEVLYAHKFVLYARCPLLIQYVNNEGFSAVEDGVLTQRVLLGDVSTEAARTFLHYLYTADTGLPPGLSSELSSLAHRFGVSELVHLCEQVPIATDS
# chain 2: B1 chain 1
# Variants of: B1
# Assay: yeast two-hybrid β-galactosidase assay
# Details: with SLX4BTB wild type, ONPG as substrate, SLX4BTB-F708R-AD + SLX4BTB-BD, parent: 710, read off a plot
row,response (OD420 reading),Variant
1,5.5,chain 1 F49R

# Same assay, conditions: with SLX4BTB wild type, ONPG as substrate, SLX4BTB-F681R-F708R-AD + SLX4BTB-BD, parent: 710, read off a plot
row,response (OD420 reading),Variant
1,5,chain 1 F22R F49R
